Measured values as given in PMC11879458.

Assays:
Assay in all cases: EMSA
[1] = target: ADR-2 (Caenorhabditis elegans, UniProt Q22618 1-495)
[2] = target: ADR-2 (ΔdsRBD);ADBP-1 (Δ1-66 aa) (Caenorhabditis elegans;Caenorhabditis …, UniProt Q22618;G5EDW1 1-35+106-495;67-217, internal_change|del1-66)
[3] = target: ADR-2;ADBP-1 (Caenorhabditis elegans;Caenorhabditis …, UniProt Q22618;G5EDW1 1-495;1-217, |)

B1: FAM-dsRNA 21 bp (dsRNA)
RNA 1: AAGGAUUACUGUAGUUUUCGC
RNA 2: GCGAAAACUACAGUAAUCCUU
B1: binds [1]; no binding [2]; binds [3].
